T1: TJP3_3, O95049
T1 sequence (O95049 375-456, limits assumed, looked up): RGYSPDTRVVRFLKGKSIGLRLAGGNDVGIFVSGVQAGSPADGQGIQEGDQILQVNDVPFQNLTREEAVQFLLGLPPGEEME

T2: HTRA4, P83105
T2 sequence (P83105 378-476, limits assumed, looked up): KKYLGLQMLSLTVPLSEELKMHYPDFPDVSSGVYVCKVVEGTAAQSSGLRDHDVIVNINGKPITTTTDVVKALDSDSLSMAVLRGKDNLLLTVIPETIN

T3: GRIP1_4, Q9Y3R0
T3 sequence (Q9Y3R0 467-571, limits assumed, looked up): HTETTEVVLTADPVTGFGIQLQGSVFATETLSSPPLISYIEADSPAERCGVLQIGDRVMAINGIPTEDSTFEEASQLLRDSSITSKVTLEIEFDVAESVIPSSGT

T4: GRIP1_5, Q9Y3R0
T4 sequence (Q9Y3R0 568-668, limits assumed, looked up): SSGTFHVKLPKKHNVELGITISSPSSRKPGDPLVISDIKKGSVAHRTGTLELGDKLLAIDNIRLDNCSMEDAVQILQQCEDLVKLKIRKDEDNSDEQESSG

T5: APBA1_1, Q02410
T5 sequence (Q02410 651-752, limits assumed, looked up): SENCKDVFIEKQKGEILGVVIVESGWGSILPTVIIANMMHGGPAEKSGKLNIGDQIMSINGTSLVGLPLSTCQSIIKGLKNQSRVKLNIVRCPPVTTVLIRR

T6: APBA1_2, Q02410
T6 sequence (Q02410 742-832, limits assumed, looked up): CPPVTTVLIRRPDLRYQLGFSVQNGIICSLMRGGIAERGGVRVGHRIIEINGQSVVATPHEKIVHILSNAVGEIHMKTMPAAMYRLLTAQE

T7: FRMPD1, Q5SYB0
T7 sequence (Q5SYB0 52-145, limits assumed, looked up): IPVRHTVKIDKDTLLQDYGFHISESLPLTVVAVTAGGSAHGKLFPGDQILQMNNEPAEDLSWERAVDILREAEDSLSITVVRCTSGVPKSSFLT

T8: DFNB31_2, Q9P202
T8 sequence (Q9P202 274-371, limits assumed, looked up): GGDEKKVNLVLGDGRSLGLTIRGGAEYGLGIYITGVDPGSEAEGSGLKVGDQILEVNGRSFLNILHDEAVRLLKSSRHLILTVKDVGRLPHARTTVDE

T9: PDZRN3_1, Q9UPQ7
T9 sequence (Q9UPQ7 244-349, limits assumed, looked up): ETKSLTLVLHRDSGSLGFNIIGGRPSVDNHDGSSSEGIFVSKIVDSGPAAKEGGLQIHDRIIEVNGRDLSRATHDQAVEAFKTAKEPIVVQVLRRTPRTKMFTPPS

T10: TIAM2, Q8IVF5
T10 sequence (Q8IVF5 885-986, limits assumed, looked up): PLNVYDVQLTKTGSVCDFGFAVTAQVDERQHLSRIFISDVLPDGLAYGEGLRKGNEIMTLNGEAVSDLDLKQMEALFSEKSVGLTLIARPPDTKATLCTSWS

T11: MPDZ_10, O75970
T11 sequence (O75970 1624-1722, limits assumed, looked up): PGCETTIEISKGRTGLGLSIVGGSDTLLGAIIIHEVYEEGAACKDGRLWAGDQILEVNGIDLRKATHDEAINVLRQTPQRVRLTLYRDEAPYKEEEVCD

T12: HTRA3, P83110
T12 sequence (P83110 354-453, limits assumed, looked up): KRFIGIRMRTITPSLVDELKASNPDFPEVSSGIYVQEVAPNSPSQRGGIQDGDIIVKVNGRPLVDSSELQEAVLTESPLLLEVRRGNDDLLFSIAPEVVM

B1: FRMPD4, Q14CM0 (peptide)
chain: RLPKIKETTV
B2: SLC4A7, Q9Y6M7 (peptide)
chain: KKYVDAETSL
B3: SLC16A3, O15427 (peptide)
chain: EVVHTPETSV

What follows are binders tested against NOS1, P29475 (assay: holdup assay). Details: plain residues with an end cap or a label only (N-terminal biotin on a linker: ttds).
Sequence of NOS1, P29475 (P29475 9-101): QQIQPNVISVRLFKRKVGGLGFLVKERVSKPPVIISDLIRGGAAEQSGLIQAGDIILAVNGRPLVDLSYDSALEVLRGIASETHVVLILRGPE
Design: key: below the threshold = too weak to quantify, mostly under pKd 3.1 to 4

pKd | Binder
below the threshold | B1
3.58 | B2
3.71 | B3

What follows are binders tested against TJP2_1, Q9UDY2 (assay: holdup assay). Details: plain residues with an end cap or a label only (N-terminal biotin on a linker: ttds).
Sequence of TJP2_1, Q9UDY2 (Q9UDY2 24-128): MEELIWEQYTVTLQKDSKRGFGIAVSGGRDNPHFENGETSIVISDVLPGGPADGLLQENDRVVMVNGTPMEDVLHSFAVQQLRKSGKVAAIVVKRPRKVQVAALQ
Design: key: below the threshold = too weak to quantify, mostly under pKd 3.1 to 4

pKd | Binder
below the threshold | B1
below the threshold | B2
below the threshold | B3

Each binder was assayed against GIPC2, Q8TF65 (assay: holdup assay). Details: plain residues with an end cap or a label only (N-terminal biotin on a linker: ttds).
Sequence of GIPC2, Q8TF65 (Q8TF65 112-203): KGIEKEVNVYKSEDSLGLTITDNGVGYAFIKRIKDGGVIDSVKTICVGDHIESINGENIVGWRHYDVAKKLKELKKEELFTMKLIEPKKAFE
Design: key: below the threshold = too weak to quantify, mostly under pKd 3.1 to 4

pKd | Binder
below the threshold | B1
3.68 | B2
below the threshold | B3

What follows are binders tested against Inadl_4, Q8NI35 (assay: holdup assay). Details: plain residues with an end cap or a label only (N-terminal biotin on a linker: ttds).
Sequence of Inadl_4, Q8NI35 (Q8NI35 547-651): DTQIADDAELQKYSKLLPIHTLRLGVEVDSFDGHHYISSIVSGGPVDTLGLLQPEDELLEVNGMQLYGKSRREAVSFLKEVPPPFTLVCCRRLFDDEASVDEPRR
Design: key: below the threshold = too weak to quantify, mostly under pKd 3.1 to 4

pKd | Binder
below the threshold | B1
below the threshold | B2
below the threshold | B3

Each binder was assayed against T1, TJP3_3, O95049 (assay: holdup assay). Details: plain residues with an end cap or a label only (N-terminal biotin on a linker: ttds).
Design: key: below the threshold = too weak to quantify, mostly under pKd 3.1 to 4

pKd | Binder
below the threshold | B1
below the threshold | B2
below the threshold | B3

Each binder was assayed against DLG4_3, P78352 (assay: holdup assay). Details: plain residues with an end cap or a label only (N-terminal biotin on a linker: ttds).
Sequence of DLG4_3, P78352 (P78352 306-403): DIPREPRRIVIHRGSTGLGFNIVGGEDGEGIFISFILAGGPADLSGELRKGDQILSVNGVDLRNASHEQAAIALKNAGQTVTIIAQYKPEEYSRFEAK
Design: key: below the threshold = too weak to quantify, mostly under pKd 3.1 to 4

pKd | Binder
5.25 | B1
3.59 | B2
3.94 | B3

These binders were tested against Inadl_3, Q8NI35 (assay: holdup assay). Details: plain residues with an end cap or a label only (N-terminal biotin on a linker: ttds).
Sequence of Inadl_3, Q8NI35 (Q8NI35 359-469): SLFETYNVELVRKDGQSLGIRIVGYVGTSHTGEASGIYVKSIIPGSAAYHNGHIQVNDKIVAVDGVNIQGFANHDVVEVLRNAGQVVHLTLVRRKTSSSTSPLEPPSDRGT
Design: key: below the threshold = too weak to quantify, mostly under pKd 3.1 to 4

pKd | Binder
below the threshold | B1
below the threshold | B2
below the threshold | B3

These binders were tested against SCRIB_3, Q14160 (assay: holdup assay). Details: plain residues with an end cap or a label only (N-terminal biotin on a linker: ttds).
Sequence of SCRIB_3, Q14160 (Q14160 999-1103): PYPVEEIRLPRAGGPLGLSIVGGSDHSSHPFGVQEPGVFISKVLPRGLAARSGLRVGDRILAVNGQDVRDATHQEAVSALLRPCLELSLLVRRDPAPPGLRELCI
Design: key: below the threshold = too weak to quantify, mostly under pKd 3.1 to 4

pKd | Binder
4.88 | B1
5.09 | B2
4.58 | B3

What follows are binders tested against Inadl_1, Q8NI35 (assay: holdup assay). Details: plain residues with an end cap or a label only (N-terminal biotin on a linker: ttds).
Sequence of Inadl_1, Q8NI35 (Q8NI35 113-229): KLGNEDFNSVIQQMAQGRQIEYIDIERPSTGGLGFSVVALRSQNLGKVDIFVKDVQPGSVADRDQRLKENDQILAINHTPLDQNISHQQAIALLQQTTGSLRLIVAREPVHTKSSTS
Design: key: below the threshold = too weak to quantify, mostly under pKd 3.1 to 4

pKd | Binder
below the threshold | B1
3.55 | B2
below the threshold | B3

Each binder was assayed against HTRA1, Q92743 (assay: holdup assay). Details: plain residues with an end cap or a label only (N-terminal biotin on a linker: ttds).
Sequence of HTRA1, Q92743 (Q92743 360-477): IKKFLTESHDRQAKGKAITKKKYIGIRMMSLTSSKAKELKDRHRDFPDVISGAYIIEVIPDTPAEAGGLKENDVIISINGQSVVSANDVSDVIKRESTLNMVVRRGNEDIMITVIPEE
Design: key: below the threshold = too weak to quantify, mostly under pKd 3.1 to 4

pKd | Binder
3.64 | B1
3.71 | B2
below the threshold | B3

Each binder was assayed against T2, HTRA4, P83105 (assay: holdup assay). Details: plain residues with an end cap or a label only (N-terminal biotin on a linker: ttds).
Design: key: below the threshold = too weak to quantify, mostly under pKd 3.1 to 4

pKd | Binder
below the threshold | B1
below the threshold | B2
below the threshold | B3

Each binder was assayed against GOPC, Q9HD26 (assay: holdup assay). Details: plain residues with an end cap or a label only (N-terminal biotin on a linker: ttds).
Design: key: below the threshold = too weak to quantify, mostly under pKd 3.1 to 4

pKd | Binder
3.83 | B1
4.09 | B2
below the threshold | B3

These binders were tested against T3, GRIP1_4, Q9Y3R0 (assay: holdup assay). Details: plain residues with an end cap or a label only (N-terminal biotin on a linker: ttds).
Design: key: below the threshold = too weak to quantify, mostly under pKd 3.1 to 4

pKd | Binder
below the threshold | B1
below the threshold | B2
below the threshold | B3

These binders were tested against T4, GRIP1_5, Q9Y3R0 (assay: holdup assay). Details: plain residues with an end cap or a label only (N-terminal biotin on a linker: ttds).
Design: key: below the threshold = too weak to quantify, mostly under pKd 3.1 to 4

pKd | Binder
below the threshold | B1
3.53 | B2
below the threshold | B3

The binders below were run against SCRIB_2, Q14160 (assay: holdup assay). Details: plain residues with an end cap or a label only (N-terminal biotin on a linker: ttds).
Sequence of SCRIB_2, Q14160 (Q14160 857-960): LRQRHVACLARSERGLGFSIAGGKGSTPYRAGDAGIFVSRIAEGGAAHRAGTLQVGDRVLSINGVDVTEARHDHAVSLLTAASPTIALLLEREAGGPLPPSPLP
Design: key: below the threshold = too weak to quantify, mostly under pKd 3.1 to 4

pKd | Binder
4.61 | B1
3.77 | B2
4.48 | B3

What follows are binders tested against T5, APBA1_1, Q02410 (assay: holdup assay). Details: plain residues with an end cap or a label only (N-terminal biotin on a linker: ttds).
Design: key: below the threshold = too weak to quantify, mostly under pKd 3.1 to 4

pKd | Binder
below the threshold | B1
below the threshold | B2
below the threshold | B3

What follows are binders tested against T6, APBA1_2, Q02410 (assay: holdup assay). Details: plain residues with an end cap or a label only (N-terminal biotin on a linker: ttds).
Design: key: below the threshold = too weak to quantify, mostly under pKd 3.1 to 4

pKd | Binder
below the threshold | B1
3.73 | B2
4.09 | B3

Each binder was assayed against T7, FRMPD1, Q5SYB0 (assay: holdup assay). Details: plain residues with an end cap or a label only (N-terminal biotin on a linker: ttds).
Design: key: below the threshold = too weak to quantify, mostly under pKd 3.1 to 4

pKd | Binder
below the threshold | B1
below the threshold | B2
below the threshold | B3

The binders below were run against T8, DFNB31_2, Q9P202 (assay: holdup assay). Details: plain residues with an end cap or a label only (N-terminal biotin on a linker: ttds).
Design: key: below the threshold = too weak to quantify, mostly under pKd 3.1 to 4

pKd | Binder
4.12 | B1
3.5 | B2
below the threshold | B3

The binders below were run against T9, PDZRN3_1, Q9UPQ7 (assay: holdup assay). Details: plain residues with an end cap or a label only (N-terminal biotin on a linker: ttds).
Design: key: below the threshold = too weak to quantify, mostly under pKd 3.1 to 4

pKd | Binder
4.47 | B1
4.57 | B2
4.42 | B3

Each binder was assayed against NHERF4_1, Q86UT5-2 (assay: holdup assay). Details: plain residues with an end cap or a label only (N-terminal biotin on a linker: ttds).
Sequence of NHERF4_1, Q86UT5-2 (Q86UT5 other isoform, or with tags, fused parts or gaps): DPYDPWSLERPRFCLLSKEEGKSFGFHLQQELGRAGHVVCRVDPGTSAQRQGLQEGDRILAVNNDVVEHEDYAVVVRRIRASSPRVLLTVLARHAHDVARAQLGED
Design: key: below the threshold = too weak to quantify, mostly under pKd 3.1 to 4

pKd | Binder
below the threshold | B1
3.49 | B2
4.19 | B3

What follows are binders tested against T10, TIAM2, Q8IVF5 (assay: holdup assay). Details: plain residues with an end cap or a label only (N-terminal biotin on a linker: ttds).
Design: key: below the threshold = too weak to quantify, mostly under pKd 3.1 to 4

pKd | Binder
below the threshold | B1
below the threshold | B2
below the threshold | B3

What follows are binders tested against T11, MPDZ_10, O75970 (assay: holdup assay). Details: plain residues with an end cap or a label only (N-terminal biotin on a linker: ttds).
Design: key: below the threshold = too weak to quantify, mostly under pKd 3.1 to 4

pKd | Binder
below the threshold | B1
below the threshold | B2
below the threshold | B3

Each binder was assayed against MAGI2_4, Q86UL8 (assay: holdup assay). Details: plain residues with an end cap or a label only (N-terminal biotin on a linker: ttds).
Sequence of MAGI2_4, Q86UL8 (Q86UL8 772-865): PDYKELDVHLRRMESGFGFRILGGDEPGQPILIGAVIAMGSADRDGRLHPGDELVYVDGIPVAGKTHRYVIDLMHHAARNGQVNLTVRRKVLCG
Design: key: below the threshold = too weak to quantify, mostly under pKd 3.1 to 4

pKd | Binder
4.24 | B1
below the threshold | B2
3.55 | B3

The binders below were run against T12, HTRA3, P83110 (assay: holdup assay). Details: plain residues with an end cap or a label only (N-terminal biotin on a linker: ttds).
Design: key: below the threshold = too weak to quantify, mostly under pKd 3.1 to 4

pKd | Binder
below the threshold | B1
below the threshold | B2
below the threshold | B3

These binders were tested against Inadl_2, Q8NI35 (assay: holdup assay). Details: plain residues with an end cap or a label only (N-terminal biotin on a linker: ttds).
Sequence of Inadl_2, Q8NI35 (Q8NI35 238-335): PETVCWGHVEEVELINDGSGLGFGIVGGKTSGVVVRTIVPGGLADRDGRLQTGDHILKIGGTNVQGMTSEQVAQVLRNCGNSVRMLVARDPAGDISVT
Design: key: below the threshold = too weak to quantify, mostly under pKd 3.1 to 4

pKd | Binder
below the threshold | B1
below the threshold | B2
below the threshold | B3
